Data from publication PMC6372703, “A thermostable laccase from Thermus sp. 2.9 and its potential for delignification of Eucalyptus biomass” (AMB Express, 2019).

Tested on: CCn1c(=NN=c2sc3cc(S(=O)(=O)O)ccc3n2CC)sc2cc(S(=O)(=O)O)ccc21
Test: purified protein
Conditions: 20 mM sodium acetate, pH 5, 60 °C, 1 mM CuSO4

In the case of LAC_2.9 (Thermus sp. 2.9), the Km is reported as 590 ± 80 µM, the kcat is reported as 1 ± 0.04 s⁻¹ and the kcat/Km is reported as 1700 ± 200 M⁻¹ s⁻¹.
